# Measured values published in a protein production outcome set (Wang et al. 2014).
# Test: label from the status in PepcDB records
row,Sequence,protein production
1,MARKTAQSKRGVFNMDRLTSMAVFVKAVDLGSFAAAAEALGLSGPMVGKHVRSLEDRLGVQLINRTTRRQSLTEFGYVYYERCRVVLAEAQAADALASDQLSEPRGKLRVTMPVHFGRHCVTPVLLELARKYPALELDLSFNDRIIDLAEDGFDLSIRTGVLEDRAGLIARRVARQPMIVCASPSYLESHGCPEAPEDLAQHAAVVYRRSGPVSPWLFPRPGQSSSEVTPLHRFRLDDLDAIADAAARGLGLAWLPYWLVRGRIEAGTLVRLLPEQPPFLYDCHAVWLQTPHLPLKVRVAVDALAAQLPSFMT,failed
2,MARLHPIYSGQSDRPAILFVHGLDGHWLETWRHDACSKDDCWPHWVGEETGCDIWSLEYDAALSGWLDQAMPLPDQGSQVMDLLASAPALKGKPLVFVTHSLGGILVKTALVYGAEEDRRFQHIVDHVLGVVFIATPHSGAQLATLARVIKYLLRINPPVGNLEHHDPHLRTLNRRYQTLVKERGIEGYVYAEKRGVKIGPRGFGGWLRRIEPTVMVVDPGSTDPSLPEIQPISLAEDHISICKPPDRQQQIHLSLCHVLKEKIIPLAGDRGMGTTGVGLKLLESGTAQENPAAHMPPGRLVGPDDNRLSPREGKVYGRKTQENDVLAFLKGSEPVKVVGGVAGVGKTEVCKAALKTWLHTSPRPVAYYVRVPDRARSADLVLQVGKAVGIENCESLAQLLGVIPVGLYYLDNLESVADDQEGRNALRDLAQKPGVRILASSRTRLDTIFGAPIEIKCLSAPDALALFRDLWPPTQTLPKDDELQAFVIGKLGGHALSLVLVARLGMCLSFDALRRRWDEEGAALACDGVEDDTRTSNLTFNLRLTAEVLAPTPGALSVWVLMALFEEGIPEAVLEEVERRGQWPTLARHRLAVHHLISKRGDRWFLPPPVARYARYAAVTEQDGFCWRKSRQPILDLFLVFAEKASSFDSSPETLKAKKWILEFFNTISIVIECELESNVQNKFWLNRMSYFLRDIYQQRIAVSPALLRKLADAGIQPANTLRSLGDLASRLGQVDKARSLYEKALGLSQQEQSGLGQANALKALGDLASRLGQVDKARSLYETALGLFQQEQHGLGQANTLHGLGDLASQLGQVDKARSLYEKALGLFQQEPNGLGQANTLKSLGALEYRLGQVDKARSLYEKAVDLYRIEQEPLGLAYSLTNLALCFEVLKNLSKRNQVLKAAFVASRDANNEIVQIYLKEAIPEMPGADVLYDSWLKGQSR,failed
3,MARLNVNPTRMELSRLKKQLTTATRGHKLLKDKQDELMRRFIALVKENNELRIQVEQEVTDALSNFVLANATLNEAFIEELVAIPAEKVELEIIEQNILSVPVPKMIFDYDESVQEAPLDYGYVNSNSELDQAFAKISSILPKLLALANVEKTCQLLSKEIEKTRRRVNALEYMTIPQLEETIYYIQMKLEENERGEITRLIKIKSMNKENLEHHHHHH,failed
4,MARMGGKKHLKALVAPKFWPILRKEYKWAVKPSPGPHPIERCFPLLIIVRDILGYAKTAREARKLISEGHFKVDGRVRKNYKYPVGLMDVIEIVDTGETYRVIPVPVKVLGLIEIDKEEAKYKLSRIENKTTVKGGHIQLNLHDGRNVLIKVSDPKNPVEDIYKTLGTLQISIPEQQILNYIPLDEGTLVIISGGRNVGRVGKVVSIHKGIRRHRSIVTIEDKHGNKFQTSLTYVFPIGKEEPLIKLPEGAW,failed
5,MARNSDNDMCKEERKRESFFKVLQRVDISSENMRALPYDFVRSFSNNELSRKMKIKARWGSSWEVEICKNPRFYFMEKSGWEKFVSDNALGASEFLTFTHKGNMRFTVNIFMQDGKEMLQPPQSMSFMASSRPPKREQGIPSLATTIAAESNGGGNYKRKLNFEKKKAEESHNSKRTDKVFSVQRESAGASSSSVAEFSMFIKKSYLIYMWFPKSVQSIHMPKQRTIFKIHHPNMKKSWNVVYVVSGTKSSFSAGWKGLAQEYPLAVGDTCKFSFIKQHELILFVSKP,failed
6,MARPLVPSSQKALLLELKGLQEEPVEGFRVTLVDEGDLYNWEVAIFGPPNTYYEGGYFKARLKFPIDYPYSPPAFRFLTKMWHPNIYETGDVCISILHPPVDDPQSGELPSERWNPTQNVRTILLSVISLLNEPNTFSPANVDASVMYRKWKESKGKDREYTDIIRKQVLGTKVDAERDGVKVPTTLAEYCVKTKAPAPDEGSDLFYDDYYEDGEVEEADSCFGDEEDDSGTEES,failed
7,MARPQPCGPPHARCGSPSLPERPLQVKVVGLFSCPNFQIAKSAAENLKNNHPSKFEDPILVPLQEFAWHQYLQEKKRELKNETWEYSSSVISFVNGQFLGDALDLQKWAHEVWDIVDIKPSALYDALTEDFSAKFLRDTKHDFVFLDICIDSSPIGRLIFELYCDVCPKTCKNFQVLCTGKAGFSQRGIRLHYKNSIFHRIVQNGWIQGGDIVYGKGDNGESIYGPTFEDENFSVPHNKRGVLGMANKGRHSNGSQFYITLQATPYLDRKFVAFGQLIEGTEVLKQLELVPTQNERPIHMCRITDSGDPYA,failed
8,MARPRDRQKLDAVKVVETLDNLHARVSERFPASGLAMVCARLADTGRQTAARARRIGRPYLLLRALVVLIIVGGVALEFALAWRLDWSAALRAREGFDLAQGLEAAINLALLSGAAAWFLSSLERRWKQQRVQVALHELRSFCHVIDMHQLTKDPSVILGPRTRHSPPREMSNFQLSRYLDYCAEMLALTAKLAALYAGETDDPVIIAAVNDIETLASDLGRKIWQKIMILGQLNEAAAAQA,failed
9,MARSQQFPSSTAVSVSPPAASSIAKPPQPVLDGLWAFAPNRDTLGGTAYFLKLPQGNWLIDAPAWHGETQAFVEEQGGLQGVFLTHRGAFGKAIAIQQHFDCDLVVQEQEAYLLPGANVTTFEQEQAIAPALTAIWTCGHSPGSACLYWEGHGGVLFTGRHLLPTRAGGVAPLRTAKTFHWPRQIRNTQMLCDRFSSETLAWICPGASSGFLRGRKAIASAYMQLQQLDWSALSEAQPLL,failed
10,MARSRVAGSKEAGPKVAGSRSRAAGQGRVGARLADGLRAYRMIAGMWIRSTMAYRASFVMTTFGNFGATALDFVAILLMFSQVDALGGYTLPEIAFLYGVAGIAFGLADLAIGSMDRLGRRVRDGTLDTLLVRPAPVLAQVAADRFALRRLGRITQGLLVFGYAVAALDIAWTPLKVLMVPFMMLSGGAIFAAVFVAGGAFQFVAQDASEVQNSFTYGGQTLLQYPPTVFAADLVRGVTFVVPIAFVNWLPALYVLGRPYPLDLPTWVAFTPPLVAAACCALAGLAWRAGLRSYRSTGS,failed
11,MARSVVVSAEAVYSHEGEYVGDHVLVDEGLVKSISRGEPHVSVGKRVAVKGFLLPPLVDAHLHMRSLGASFRIVNLKGASSPEEVAKRLAAANSPIAVGRGWNEEEFRPGSRLDRRILDSYLGEKPALAVRICGHVAVANSAFIRESGVDKLFPNLVDRERGLLLEDAVSYAVSVAMKTYNNEELLRDAASALASVGVFGVSSMACSEEEVRALSLIGDALEVRVACYLRRGVEPPPKRAGARWSIVGVKLFADGSLGGRTAYLRRPYISGENEGWRGLKLLSSRDIAEEAVSNSHRGLATAVHAIGDAALDEVLEGFSNAISRGVEPGMLRVEHASLAWPNQIDRLASLRVWTVVQPLFRVSDWWLESRVGSDMLQAAYPFASMLRAGVKLALSTDAPVETYDPAETFKAAVGLCSSRLCRESESLTPRETLKLYTLNSALASGGPVAWLGRLRRGAPALFAVANVDVLNSGRKELEKLKFRGLNLAK,failed
12,MASASFSAVSSLSYQFRSKEAIFSSKASCFSSTALSGRRVFGSIKAAQVTSHENPRRRTQNVEGDIFVDNTCIDCDTCRWMVPDLFTRVDNMSAVTKQPTCKEERLNALQALLSCPTGSIRTQTPPADIGEAQETFPLVVDKDTLPGVFHCGFHSKKSYGATSYLILHREGNILVDSPRYVEKLAGKIEMKGGVRYMFLTHRDDVADHKKWADRFKSTRILHSDDVEPSTSDVELKLEGSGPWSIYEDVELIHTPGHSEGSVCMFHKSLKALFTGDHVIMTESGLSILEQYNHGSVPLQLENVEKLINLDFNWLIPGHGRRVHFKDGDEKAKNLEALVQKHREKQLVSFSKSGKA,failed
13,MASEMKFAWLLAPDTYWDEKKTFITAALESGIDHIVDTADSGRIKKLGNLTLISPDEDADIVLVGRDGEGDGTLELPETLEYSRDIEMASELSESGRQVAAYVEIRSKAHEELARRLGRVVDYLILVGEDWKIIPLENIIADLQEEDVKLIAAVADVDEARVALETLEHGTDGVLIEPADISQIKDIAALLENIESETYELKPATITRIEPIGSGDRVCVDTCSIMGIGEGMLVGSYSQGLFLVHSESLESEYVASRPFRVNAGPVQAYVMVPGGRTRYLSELETGDEVIIVDRDGRSRSAIVGRVKIEKRPLMLVEAEYEGMKVRTLLQNAETIRLVNDKGEPVSVSELGEGDRVLVYFDESARHFGMAIKETIIEKLEHHHHHH,not failed
14,MASFPELPALRRLATLGRSWGLLSDFKYEQTRPDIFYGNLALDTSSLVAALSEDISGAGLNDLKVLDVGGGPGYFAEAFETLGATYFSVEPDVGEMSAAGIDVHGSVRGSGLDLPFLPDSFDVVYSSNVAEHVSAPWELGEEMLRVTRSGGLAILSYTIWLGPFGGHETGLWEHYVGGEFARDRYTKKHGHPPKNVFGESLFNVSCREGLEWGASVGNAELVAAFPRYHPYWVWWMVKVPVLREFAVSNLVLVFKKHLEHHHHHH,failed
15,MASFSAETNSTDLLSQPWNEPPVILSMVILSLTFLLGLPGNGLVLWVAGLKMQRTVNTIWFLHLTLADLLCCLSLPFSLAHLALQGQWPYGRFLCKLIPSIIVLNMFASVFLLTAISLDRCLVVFKPIWCQNHRNVGMACSICGCIWVVAFVMCIPVFVYREIFTTDNHNRCGYKFGLSSSLDYPDFYGDPLENRSLENIVQPPGEMNDRLDPSSFQTNDHPWTVPTVFQPQTFQRPSADSLPRGSARLTSQNLYSNVFKPADVVSPKIPSGFPIEDHETSPLDNSDAFLSTHLKLFPSASSNSFYESELPQGFQDYYNLGQFTDDDQVPTPLVAITITRLVVGFLLPSVIMIACYSFIVFRMQRGRFAKSQSKTFRVAVVVVAVFLVCWTPYHIFGVLSLLTDPETPLGKTLMSWDHVCIALASANSCFNPFLYALLGKDFRKKARQSIQGILEAAFSEELTRSTHCPSNNVISERNSTTV,failed
16,MASGKQFMKKPIVWTIAGVDSSGLAGVHADMETFSRLNVRACSVITAVTAQNAHSIIAVEEISRDQVAAQCRALELNLKPDAIKIGMLCSTPICEEIAYFLKGYEGFVVLDPIITSSSGTNLFFPDLQQHKNNLIQLFPYITIITPNRIEAEIILNRSIYSYQDIINAASDLLSLGAKQVLLKGGHVKDNSFSQDYWTDGKESFWIANRRFPETNYRGTGCVLSSALTACLALGYSIKDAIVIAKMYVNRGIRQSIEIDKDASQLYHDGWPEDEADLPYLSPTPFIKPVPSFKKYSMGFYPIVDSSHWLEMLLPLGIKCIQLRIKEASQERLEEEIKRSVHLANQYNAALFINDHWELAIHYGAAGVHLGQEDLEKADVDRINRSGLFLGISTHCYYEVARAHALNPSYVACGPIYETTSKIMPFQAQGIARLERWRKTLRYPLVAIGGITLKNLSDVLKTKIDGVSVISAITKASAPLVAAKQFLTQMNESHNE,failed
17,MASHVDLLTELQLLEKVPTLERLRAAQKRRAQQLKKWAQYEQDLLHRKRKHERKRSTGGRRKKVSFEASVALLEASLRNDAEEVRYFLKNKVSPDLCNEDGLTALHQCCIDNFEEIVKLLLSHGANVNAKDNELWTPLHAAATCGHINLVKILVQYGADLLAVNSDGNMPYDLCEDEPTLDVIETCMAYQGITQEKINEMRAAPEQKMISDIHCMIAAGQDLDWIDGQGATLLHIAGANGYLRAAELLLDHGVRVDVKDWDGWEPLHAAAFWGQMPMAELLVSHGASLSARTSMDEMPIDLCEEEEFKVLLLELKHKHDVIMKSQLRHKSSLSRRTSSAGSRGKVVRRASLSDRTNLYRKEYEGEAILWQQRSAAEEQRTSTYNGDIRETRTDQENKDPNPRLEKPVLLSEFSTKISRGELDGPVENGLRAPVSTYQYALANGDIWKMHEIPDYSMAYGNPGMADVPPPWSGFKEQSPQTLLELKRQRAAAKLLSHPFLSTHLGSSVARSGEGSSEGKAPLIGGRTSPYSSNGTSVYYTVTSGDPPLLKFKAPMEEMEEKVHGCCRIS,failed
